Experiment [1] concerns the target T1, Recombinant Human CDH6 Fc His chimera (R&D Systems, Inc.) (human, UniProt P55285 54-615).
T1 construct: Bought product; also called the antigen; human CDH6 antigen
T1 sequence: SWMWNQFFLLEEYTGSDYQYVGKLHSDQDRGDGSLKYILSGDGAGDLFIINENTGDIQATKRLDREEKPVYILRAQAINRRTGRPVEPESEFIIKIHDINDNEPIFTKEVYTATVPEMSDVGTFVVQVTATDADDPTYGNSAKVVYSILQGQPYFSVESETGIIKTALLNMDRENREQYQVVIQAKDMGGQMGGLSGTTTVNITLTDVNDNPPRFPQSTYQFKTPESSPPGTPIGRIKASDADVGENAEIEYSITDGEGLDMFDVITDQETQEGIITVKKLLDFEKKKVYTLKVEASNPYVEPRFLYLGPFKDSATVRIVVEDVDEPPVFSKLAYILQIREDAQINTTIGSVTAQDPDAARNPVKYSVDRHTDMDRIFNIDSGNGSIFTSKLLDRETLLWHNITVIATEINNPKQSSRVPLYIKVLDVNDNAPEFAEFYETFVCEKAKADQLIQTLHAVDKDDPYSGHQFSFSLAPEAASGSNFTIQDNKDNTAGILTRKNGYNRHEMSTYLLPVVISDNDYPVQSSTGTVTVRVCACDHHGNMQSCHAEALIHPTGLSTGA
Nature of the experiment: SPR (Biacore T200), antigen captured by anti-His antibody, antibody as analyte, steady state affinity model. The procedure:
The dissociation constant between the antibody and the antigen (Recombinant Human CDH6 Fc His chimera, R&D Systems, Inc.) was measured by using Biacore T200 (GE Healthcare Biosciences Corp.), according to a capture method, which comprises capturing the antigen as a ligand with the immobilized anti-His antibody and then measuring the dissociation constant using an antibody as an analyte. Approximately 1000 RU of the anti-histidine antibody (His capture kit, GE Healthcare Biosciences Corp.) was covalently bound to sensor chip CM5 (GE Healthcare Biosciences Corp.) by the amine coupling method. The antibody was also immobilized onto reference cells in the same manner as above. HBS-P+ (10 mM HEPES pH 7.4, 0.15 M NaCl, 0.05% Surfactant P20) supplemented with 1 mM CaCl₂ was used as a running buffer. The antigen was added onto the anti-histidine antibody-immobilized chip for 60 seconds, and a dilution series solution (0.391 to 100 nM) of the antibody was then added at a flow rate of 30 μl/min for 300 seconds. Subsequently, the dissociation phase was monitored for 600 seconds. As a regeneration solution, a glycine solution (pH 1.5) supplemented with 5 M MgCl2 was added twice at a flow rate of 10 μl/min for 30 seconds. A Steady State Affinity model in analysis software (BIAevaluation software, version 4.1) was used in data analysis, and the dissociation constant (KD) was calculated.

For a further experiment, the target named is T2, mouse CDH6 (on cells) (mouse, UniProt P97326 54-790).
T2 construct: also called mCDH6
T2 sequence: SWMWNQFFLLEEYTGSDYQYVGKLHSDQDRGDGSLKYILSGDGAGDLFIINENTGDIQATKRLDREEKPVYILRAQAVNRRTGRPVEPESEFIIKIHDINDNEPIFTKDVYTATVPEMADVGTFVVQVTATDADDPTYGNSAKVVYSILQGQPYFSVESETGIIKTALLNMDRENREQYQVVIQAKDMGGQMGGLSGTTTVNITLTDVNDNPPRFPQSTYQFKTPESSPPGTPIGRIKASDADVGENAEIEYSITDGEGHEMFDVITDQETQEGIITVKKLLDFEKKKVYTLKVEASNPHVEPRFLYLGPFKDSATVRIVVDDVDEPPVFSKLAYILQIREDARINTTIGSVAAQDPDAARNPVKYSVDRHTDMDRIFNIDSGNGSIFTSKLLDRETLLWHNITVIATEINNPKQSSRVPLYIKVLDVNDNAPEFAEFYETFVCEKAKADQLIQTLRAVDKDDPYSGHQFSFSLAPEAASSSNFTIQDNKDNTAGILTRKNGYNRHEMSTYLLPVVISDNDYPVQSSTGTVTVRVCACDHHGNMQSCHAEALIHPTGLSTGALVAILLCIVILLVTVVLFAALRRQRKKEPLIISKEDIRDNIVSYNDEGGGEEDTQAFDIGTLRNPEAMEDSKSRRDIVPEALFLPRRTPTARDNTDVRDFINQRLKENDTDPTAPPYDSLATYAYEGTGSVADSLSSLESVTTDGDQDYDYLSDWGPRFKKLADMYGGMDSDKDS
Nature of the experiment: flow cytometry, MFI vs antibody concentration; 293α cells transiently transfected with mCDH6; PE anti-human IgG Fc. The procedure:
The cells were cultured overnight under conditions of 37° C. and 5% CO₂, and thereafter, a cell suspension was prepared. […] Thereafter, the cells were suspended by the addition of each of the 4 humanized hG019 antibodies (clone Nos: H01L02, H02L02, H02L03 and H04L02), which had been prepared in Example 5)-5-3, or human IgG1 control (Calbiochem). The cells were left standing at 4° C. for 1 hour. The cells were washed twice with PBS supplemented with 5% FBS, and then suspended by the addition of anti-human IgG, Fc(gamma) PE goat F(ab′) (Jackson ImmunoResearch Laboratories, Inc.) that had been 500-fold diluted with PBS supplemented with 5% FBS. The cells were left standing at 4° C. for 1 hour. The cells were washed twice with PBS supplemented with 5% FBS, followed by detection using a flow cytometer (Canto II; BD Biosciences). The data was analyzed using FlowJo (Tree Star, Inc.). In FIGS. 6-1 and 6-2, the abscissa depicts antibody concentration, and the ordinate depicts the amount of the antibody bound based on mean fluorescence intensity. As shown in FIGS. 6-1 and 6-2, the human IgG1 control as a negative control binds to none of the CDH6-transfected cells. The 4 humanized hG019 antibodies (clone Nos: H01L02, H02L02, H02L03 and H04L02) bind to human CDH6 and cynomolgus monkey CDH6, but bind to neither mouse nor rat CDH6. None of the antibodies bind to the cells transfected with the empty vector pcDNA3.1 as a negative control.

The values that follow come from patent publication US20200171163A1 (Daiichi Sankyo, published 2020).

B1: H02L02 antibody (antibody, human IgG1, kappa, V domains shown)
VH: EVQLVQSGAEVKKPGASVKVSCKASGYTFTRNFMHWVRQAPGQGLEWMGWIYPGDGETEYNQKFQGRVTITADRSTSTAYMELSSLRSEDTAVYFCARGVYGGFAGGYFDFWGQGTLVTVSS
VL: DIQMTQSPSSLSASVGDRVTITCKASQNIYKNLAWYQQKPGKAPKLLIYDANTLQTGVPSRFSGSGSGSDFTLTISSLQPEDFATYFCQQYYSGWAFGQGTKVEIKR
notes: Humanized IgG1/kappa (hH02 + hL02); also called humanized hG019 antibody H02L02
As to B1, the Kd in experiment [1] stood at 1.1 nM. Moreover, the binding result with mouse CDH6 (on cells) was “no binding (tested: about 4 nM)”.

B2: H02L03 antibody (antibody, human IgG1, kappa, V domains shown)
VH: EVQLVQSGAEVKKPGASVKVSCKASGYTFTRNFMHWVRQAPGQGLEWMGWIYPGDGETEYNQKFQGRVTITADRSTSTAYMELSSLRSEDTAVYFCARGVYGGFAGGYFDFWGQGTLVTVSS
VL: DIQMTQSPSSLSASVGDRVTITCKASQNIYKNLAWYQQKLGEGPKLLIYDANTLQTGVPSRFSGSGSGTDFTLTISSLQPEDFATYYCQQYYSGWAFGQGTKVEIKR
notes: Humanized IgG1/kappa (hH02 + hL03); also called humanized hG019 antibody H02L03
As for B2, in experiment [1], the Kd worked out at 1.4 nM. Further, in the experiment with mouse CDH6 (on cells), the binding result is reported as “no binding (tested: about 4 nM)”.

B3: H01L02 antibody (antibody, human IgG1, kappa, V domains shown)
VH: EVQLVQSGAEVKKPGASVKVSCKASGYTFTRNFMHWVRQAPGQGLEWMGWIYPGDGETEYAQKFQGRVTITADTSTSTAYMELSSLRSEDTAVYYCARGVYGGFAGGYFDFWGQGTLVTVSS
VL: DIQMTQSPSSLSASVGDRVTITCKASQNIYKNLAWYQQKPGKAPKLLIYDANTLQTGVPSRFSGSGSGSDFTLTISSLQPEDFATYFCQQYYSGWAFGQGTKVEIKR
notes: Humanized IgG1/kappa (hH01 + hL02); also called humanized hG019 antibody H01L02; labeled H01L02
Take B3: the Kd in experiment [1] worked out at 1.5 nM. Also, the binding result with mouse CDH6 (on cells) was “no binding (tested: about 4 nM)”.

B4: H04L02 antibody (antibody, human IgG1, kappa, V domains shown)
VH: QVQLVQSGAEVKKPGASVKVSCKASGYTFTRNFMHWIRQAPGQGLEWMGWIYPGDGETEYAQKFQGRVTLTADRSTSTAYMELSSLRSEDTAVYYCARGVYGGFAGGYFDFWGQGTLVTVSS
VL: DIQMTQSPSSLSASVGDRVTITCKASQNIYKNLAWYQQKPGKAPKLLIYDANTLQTGVPSRFSGSGSGSDFTLTISSLQPEDFATYFCQQYYSGWAFGQGTKVEIKR
notes: Humanized IgG1/kappa (hH04 + hL02); also called humanized hG019 antibody H04L02
With B4, the Kd in experiment [1] came out at 1.1 nM. For the same molecule, in the experiment with mouse CDH6 (on cells), the binding result is “no binding (tested: about 4 nM)”.
